doi:10.1101/2024.04.08.588565v2

Substrate: O=C1CCCCC1
Experiment: purified protein
Assay type: biochemical, Streptosporangium roseum
Settings: 30 mM cyclopropylamine, 0.5 mM NADPH

B1: SrIRED (Streptosporangium roseum DSM 43021; P203A/T241G) (protein)
chain: MRDTDVTVLGLGLMGQALAGAFLKDGHATTVWNRSEGKAGQLAEQGAVLASSARDAAEASPLVVVCVSDHAAVRAVLDPLGDVLAGRVLVNLTSGTSEQARATAEWAAERGITYLDGAIMAIPQVVGTADAFLLYSGPEAAYEAHEPTLRSLGAGTTYLGADHGLSSLYDVALLGIMWGTLNSFLHGAALLGTAKVEATTFAAFANRWIEAVTGFVSAYAGQVDQGAYPALDATIDTHVAGVDHLIHESEAAGVNTELPRLVRTLADRALAGGQGGLGYAAMIEQFRSPSA
Which results are given for B1?
Km (Tris pH 8, 25 °C): 5.1 ± 0.4 mM; kcat (Tris pH 8, 25 °C): 49.3 ± 1.5 s⁻¹

B2: SrIRED (Streptosporangium roseum DSM 43021; T241A) (protein)
chain: MRDTDVTVLGLGLMGQALAGAFLKDGHATTVWNRSEGKAGQLAEQGAVLASSARDAAEASPLVVVCVSDHAAVRAVLDPLGDVLAGRVLVNLTSGTSEQARATAEWAAERGITYLDGAIMAIPQVVGTADAFLLYSGPEAAYEAHEPTLRSLGAGTTYLGADHGLSSLYDVALLGIMWGTLNSFLHGAALLGTAKVEATTFAPFANRWIEAVTGFVSAYAGQVDQGAYPALDATIDTHVAAVDHLIHESEAAGVNTELPRLVRTLADRALAGGQGGLGYAAMIEQFRSPSA
How did the Km (Tris pH 8, 25 °C) turn out when B2 was run?
Its Km is 2.31 ± 0.33 mM.

What about the kcat (Tris pH 8, 25 °C) of the same protein?
The kcat was 5.77 ± 0.24 s⁻¹.

B3: SrIRED (Streptosporangium roseum DSM 43021; T241S) (protein)
chain: MRDTDVTVLGLGLMGQALAGAFLKDGHATTVWNRSEGKAGQLAEQGAVLASSARDAAEASPLVVVCVSDHAAVRAVLDPLGDVLAGRVLVNLTSGTSEQARATAEWAAERGITYLDGAIMAIPQVVGTADAFLLYSGPEAAYEAHEPTLRSLGAGTTYLGADHGLSSLYDVALLGIMWGTLNSFLHGAALLGTAKVEATTFAPFANRWIEAVTGFVSAYAGQVDQGAYPALDATIDTHVASVDHLIHESEAAGVNTELPRLVRTLADRALAGGQGGLGYAAMIEQFRSPSA
For B3, which Km (Tris pH 8, 25 °C) is on record?
The Km was 2.31 ± 0.51 mM.

And the kcat (Tris pH 8, 25 °C)?
Its kcat is 6.02 ± 0.39 s⁻¹.

B4: SrIRED (Streptosporangium roseum DSM 43021; E146V) (protein)
chain: MRDTDVTVLGLGLMGQALAGAFLKDGHATTVWNRSEGKAGQLAEQGAVLASSARDAAEASPLVVVCVSDHAAVRAVLDPLGDVLAGRVLVNLTSGTSEQARATAEWAAERGITYLDGAIMAIPQVVGTADAFLLYSGPEAAYEAHVPTLRSLGAGTTYLGADHGLSSLYDVALLGIMWGTLNSFLHGAALLGTAKVEATTFAPFANRWIEAVTGFVSAYAGQVDQGAYPALDATIDTHVATVDHLIHESEAAGVNTELPRLVRTLADRALAGGQGGLGYAAMIEQFRSPSA
What does the source list for B4?
Km (Tris pH 8, 25 °C): 2.4 ± 0.3 mM; kcat (Tris pH 8, 25 °C): 1.7 ± 0.1 s⁻¹

B5: SrIRED (Streptosporangium roseum DSM 43021) (protein)
chain: MRDTDVTVLGLGLMGQALAGAFLKDGHATTVWNRSEGKAGQLAEQGAVLASSARDAAEASPLVVVCVSDHAAVRAVLDPLGDVLAGRVLVNLTSGTSEQARATAEWAAERGITYLDGAIMAIPQVVGTADAFLLYSGPEAAYEAHEPTLRSLGAGTTYLGADHGLSSLYDVALLGIMWGTLNSFLHGAALLGTAKVEATTFAPFANRWIEAVTGFVSAYAGQVDQGAYPALDATIDTHVATVDHLIHESEAAGVNTELPRLVRTLADRALAGGQGGLGYAAMIEQFRSPSA
Which results are given for B5?
Km (100 mM Tris pH 8.0, 25 °C): 3.52 ± 0.44 mM; kcat (100 mM Tris pH 8.0, 25 °C): 2.11 ± 0.08 s⁻¹
